Source: paper PMC3554232
Like-named read-outs stand apart in the source and are kept apart here.

Legend:
Assay in all cases: smFRET
yNhp6A [1] = target: T1, yNhp6A (Saccharomyces cerevisiae, UniProt P11632 1-93)
yNhp6A [2] = target: T1, yNhp6A; remark: listed apart in the source
yNhp6A [3] = target: T1, yNhp6A; remark: listed apart in the source
yNhp6A [4] = target: T1, yNhp6A; remark: listed apart in the source

T1 sequence (P11632 whole entry): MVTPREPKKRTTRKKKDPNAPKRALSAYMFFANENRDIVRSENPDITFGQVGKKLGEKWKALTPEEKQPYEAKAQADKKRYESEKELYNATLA

B1: linear_18b (dsDNA)
DNA 1: TGGTTATATCATCTAGGC
DNA 2: GCCTAGATGATATAACCATTTTTTTTTTTTTTT
Question: How did the binding signal (yNhp6A [1]) turn out when B1 was run?
Answer: ~2 fold affinity vs linear_18a

B2: linear_18a (dsDNA)
DNA 1: TGGCGACGGCAGCGAGGC
DNA 2: GCCTCGCTGCCGTCGCCATTTTTTTTTTTTTTT
Question: Which Kd (yNhp6A [2]) does the source give for B2 here?
Answer: ~1 nM

B3: bulge_18a (dsDNA)
DNA 1: TGGCGACGGAACAGCGAGGC
DNA 2: B2 DNA 2
Question: Which binding signal (yNhp6A [3]) does the source give for B3 here?
Answer: ~2 fold kon vs linear_18a

B4: linear_15a (dsDNA)
DNA 1: CGACGGCAGCGAGGC
DNA 2: B2 DNA 2
Question: Does B4 bind (yNhp6A [4])?
Answer: binds

B5: bulge_15a (dsDNA)
DNA 1: CGACGGCAAAGCGAGGC
DNA 2: B2 DNA 2
Question: Does B5 bind (yNhp6A [4])?
Answer: binds
